Laboratory results published in patent US12522842B2, “Glutamine synthetase mutant having glufosinate resistance and application thereof and cultivation method therefor” (GEVOTO LLC, priority 2019, dated 2026).

Columns and labels:
[1] = test system: glutamine synthetase-deficient Escherichia coli; assay: Growth of glutamine synthetase-deficient E. coli transformed with GS mutants in M9 medium containing glufosinate; type: cell-based; conditions: for growth of transformed GS-deficient E. coli (normal GS enzymatic activity): medium containing 0 mM glufosinate
From the text: According to the sequences of the nucleic acid molecules provided in Example 4, the nucleic acid sequences encoding rice GS mutants OsA, OsC, OsD, OsE, OsF, OsG, OsH, OsI, OsK, OsP, OST, OsV, and OsY were synthesized using chemical synthesis method. Restriction digestion sites (Pac1 and Sbf1) were introduced at both ends thereof, and after restriction digestion, they were linked under the action of ligase to an expression vector (such as pADV7 vector, whose structure is shown in FIG. 4) that was subjected to the same restriction digestion treatment. Then, glutamine synthetase-deficient Escherichia coli was transformed with the resultant. After verification, positive clones were picked up and inoculated in M9 medium containing different concentrations of glufosinate to grow, and the growth status of defective Escherichia coli was observed.
With wild-type rice GS (its amino acid sequence shown in SEQ ID NO. 1 and its encoding gene shown in SEQ ID NO. 4) as a negative control, the glufosinate resistance for the GS mutant OsA (S59A, wherein the amino acid S at site 59 of the rice GS is mutated into A), OsC (S59C), OsD (S59D), OsE (S59E), OsF (S59F), OsG (S59G), OsH (S59H), OsI (S591), OsK (S59K), OsP (S59P), OsT (S59T), OsV (S59V), OsY (S59Y) was detected.
With reference to the detection method of Experimental Example 1, glufosinate resistance of the rice GS mutant OsGR (S59G and H296R, the amino acid S at site 59 of rice GS is mutated into G and the amino acid H at site 296 is mutated into R), the wheat GS mutant TaGR (S59G and H296R, the amino acid S at site 59 of wheat GS is mutated into G and the amino acid H at site 296 is mutated into R), the soybean GS mutant GmGR (S59G and H296R, the amino acid S at site 59 of soybean GS is mutated into G and the amino acid H at site 296 is mutated into R) provided in Example 2 was verified.
With reference to Experimental example 1, the glufosinate resistance of rice GS mutants OA, OD, OE, OG, OI, OK, OM, OP, OQ, OR, OS, OT, and OV provided in Example 3 was detected according to the following method.
With wild-type rice GS as a negative control, the glufosinate resistance of GS mutants OA (H296A, amino acid H at site 296 of rice GS is mutated into A), OD (H296D), OE (H296E), OG (H296G), OI (H2961), OK (H296K), OM (H296M), OP (H296P), OQ (H296Q), OR (H296R), OS (H296S), OT (H296T), OV (H296V) was detected.

[2] = molecular target: rice GS (glutamine synthetase); assay: Enzymatic activity of purified rice GS: kinetic parameters and glufosinate IC50; type: biochemical, rice (Oryza sativa); conditions: inhibition of rice GS by glufosinate
From the text: OsC, OsF, OsG, OsH, OsP, and OsY provided in Example 1, OR provided in Example 3, and rice GS mutant OsGR and wheat GS mutant TaGR provided in Example 2 were detected for their enzymatic kinetic parameter, and enzymatic kinetic parameter in the presence of glufosinate, using wild-type rice GS OsGS_WT and wild-type wheat GS TaGS_WT as controls according to the following method.
The nucleic acid sequences encoding the above mutants were each cloned into a prokaryotic expression vector pET32a, and the clone was verified by sequencing.
The mutant enzyme protein was purified with 6His by a standard method, and its concentration was determined with a protein concentration assay kit with Bradford method. The protein was stored in a protein storage solution.
ELIASA (Detielab, HBS-1096A), glufosinate, substrate sodium L-glutamate (CAS: 6106-04-3).
(1) The composition of a reaction solution for determination of enzymatic activity of glutamine synthetase were as follows: 100 mM Tris-HCl (pH 7.5), 10 mM ATP, 20 mM sodium L-glutamate, 30 mM hydroxylamine, 20 mM MgCl2. 100 μl of the reaction solution after mixed thoroughly was preheated at 35° C. for 5 min, and 10 μl of mutant protein solution (protein concentration of 200 μg/ml) was added to start the reaction. After reaction at 35° C. for 30 min, 110 μl of color developing solution (55 g/L FeCl3·6H2O, 20 g/L trichloroacetic acid, 2.1% concentrated hydrochloric acid) was added to terminate the reaction. The absorbance at 540 nm was measured.

[3] = medium containing 10 mM glufosinate
[4] = medium with 50 mM/100 mM glufosinate
[5] = media containing 2 mM, 5 mM, 10 mM, and 20 mM glufosinate

B1: OsGS_WT: wild-type rice glutamine synthetase, SEQ ID NO. 1, negative control (protein, listed as Oryza sativa)
chain: MASLTDLVNLNLSDTTEKIIAEYIWIGGSGMDLRSKARTLSGPVTDPSKLPKWNYDGSSTGQAPGEDSEVILYPQAIFKDPFRKGNNILVMCDCYTPAGEPIPTNKRHNAAKIFSSPEVASEEPWYGIEQEYTLLQKDINWPLGWPVGGFPGPQGPYYCGIGADKSFGRDIVDSHYKACLYAGINISGINGEVMPGQWEFQVGPSVGISAGDQVWVARYILERITEIAGVVVSFDPKPIPGDWNGAGAHTNYSTKSMRNDGGYEIIKSAIEKLKLRHKEHISAYGEGNERRLTGRHETADINTFSWGVANRGASVRVGRETEQNGKGYFEDRRPASNMDPYIVTSMIAETTIIWKP
[1]; media containing 10 mM, 20 mM and 300 mM glufosinate
  growth of transformed E. coli (glufosinate resistance): could hardly grow
[1]
  growth of transformed GS-deficient E. coli (normal GS enzymatic activity): could normally grow
[1]; [3]
  growth of transformed E. coli (glufosinate resistance): could hardly grow
[2]; read-out: glufosinate resistance parameter IC50
  IC50: 700 µM

B2: OsY: rice GS mutant, S59Y versus SEQ ID NO. 1 (SEQ ID NO. 19) (protein)
chain: MASLTDLVNLNLSDTTEKIIAEYIWIGGSGMDLRSKARTLSGPVTDPSKLPKWNYDGSYTGQAPGEDSEVILYPQAIFKDPFRKGNNILVMCDCYTPAGEPIPTNKRHNAAKIFSSPEVASEEPWYGIEQEYTLLQKDINWPLGWPVGGFPGPQGPYYCGIGADKSFGRDIVDSHYKACLYAGINISGINGEVMPGQWEFQVGPSVGISAGDQVWVARYILERITEIAGVVVSFDPKPIPGDWNGAGAHTNYSTKSMRNDGGYEIIKSAIEKLKLRHKEHISAYGEGNERRLTGRHETADINTFSWGVANRGASVRVGRETEQNGKGYFEDRRPASNMDPYIVTSMIAETTIIWKP
modifications: OsY
[1]
  growth of transformed GS-deficient E. coli (normal GS enzymatic activity): could normally grow
[1]; [3]
  growth of transformed E. coli (glufosinate resistance): significantly superior to that of the negative control
[1]; [4]
  growth of transformed E. coli (glufosinate resistance): significantly grew
[2]
  glufosinate resistance parameter IC50: much higher than those of the wild-type controls

B3: OsG (protein)
chain: MASLTDLVNLNLSDTTEKIIAEYIWIGGSGMDLRSKARTLSGPVTDPSKLPKWNYDGSGTGQAPGEDSEVILYPQAIFKDPFRKGNNILVMCDCYTPAGEPIPTNKRHNAAKIFSSPEVASEEPWYGIEQEYTLLQKDINWPLGWPVGGFPGPQGPYYCGIGADKSFGRDIVDSHYKACLYAGINISGINGEVMPGQWEFQVGPSVGISAGDQVWVARYILERITEIAGVVVSFDPKPIPGDWNGAGAHTNYSTKSMRNDGGYEIIKSAIEKLKLRHKEHISAYGEGNERRLTGRHETADINTFSWGVANRGASVRVGRETEQNGKGYFEDRRPASNMDPYIVTSMIAETTIIWKP
modifications: OsG
[1]
  growth of transformed GS-deficient E. coli (normal GS enzymatic activity): could normally grow
[1]; [3]
  growth of transformed E. coli (glufosinate resistance): significantly superior to that of the negative control
[1]; [4]
  growth of transformed E. coli (glufosinate resistance): significantly grew

B4: OsI (protein)
chain: MASLTDLVNLNLSDTTEKIIAEYIWIGGSGMDLRSKARTLSGPVTDPSKLPKWNYDGSITGQAPGEDSEVILYPQAIFKDPFRKGNNILVMCDCYTPAGEPIPTNKRHNAAKIFSSPEVASEEPWYGIEQEYTLLQKDINWPLGWPVGGFPGPQGPYYCGIGADKSFGRDIVDSHYKACLYAGINISGINGEVMPGQWEFQVGPSVGISAGDQVWVARYILERITEIAGVVVSFDPKPIPGDWNGAGAHTNYSTKSMRNDGGYEIIKSAIEKLKLRHKEHISAYGEGNERRLTGRHETADINTFSWGVANRGASVRVGRETEQNGKGYFEDRRPASNMDPYIVTSMIAETTIIWKP
modifications: OsI
[1]
  growth of transformed GS-deficient E. coli (normal GS enzymatic activity): could normally grow
[1]; [3]
  growth of transformed E. coli (glufosinate resistance): significantly superior to that of the negative control
[1]; [4]
  growth of transformed E. coli (glufosinate resistance): significantly grew

B5: OsH: rice GS mutant, S59H versus SEQ ID NO. 1 (SEQ ID NO. 13) (protein)
chain: MASLTDLVNLNLSDTTEKIIAEYIWIGGSGMDLRSKARTLSGPVTDPSKLPKWNYDGSHTGQAPGEDSEVILYPQAIFKDPFRKGNNILVMCDCYTPAGEPIPTNKRHNAAKIFSSPEVASEEPWYGIEQEYTLLQKDINWPLGWPVGGFPGPQGPYYCGIGADKSFGRDIVDSHYKACLYAGINISGINGEVMPGQWEFQVGPSVGISAGDQVWVARYILERITEIAGVVVSFDPKPIPGDWNGAGAHTNYSTKSMRNDGGYEIIKSAIEKLKLRHKEHISAYGEGNERRLTGRHETADINTFSWGVANRGASVRVGRETEQNGKGYFEDRRPASNMDPYIVTSMIAETTIIWKP
modifications: OsH
[1]
  growth of transformed GS-deficient E. coli (normal GS enzymatic activity): could normally grow
[1]; [3]
  growth of transformed E. coli (glufosinate resistance): significantly superior to that of the negative control
[1]; [4]
  growth of transformed E. coli (glufosinate resistance): significantly grew
[2]
  glufosinate resistance parameter IC50: much higher than those of the wild-type controls

B6: TaGR (protein)
chain: MALLTDLLNLDLTDSTEKIIAEYIWIGGSGMDLRSKARTLPGPVTDPSKLPKWNYDGSGTGQAPGEDSEVILYPQAIFKDPFRKGNNILVMCDCYTPAGVPIPTNKRYNAAKIFSNPDVAKEEPWYGIEQEYTLLQKDINWPLGWPVGGFPGPQGPYYCSIGADKSFGRDIVDSHYKACLFAGVNISGINGEVMPGQWEFQVGPTVGISAGDQVWVARYLLERITEIAGVVVTFDPKPIPGDWNGAGAHTNYSTESMRKDGGFKVIVDAVEKLKLKHKEHIAAYGEGNERRLTGKRETADINTFSWGVANRGASVRVGRETEQNGKGYFEDRRPASNMDPYVVTSMIAETTILWKP
modifications: TaGR
[1]; [5]
  growth of transformed E. coli (glufosinate resistance): significantly grew
[1]
  growth of transformed GS-deficient E. coli (normal GS enzymatic activity): could normally grow

B7: GmGS_WT: wild-type soybean glutamine synthetase, SEQ ID NO. 3, control (protein)
chain: MSLLSDLINLNLSDTTEKVIAEYIWIGGSGMDLRSKARTLPGPVSDPSKLPKWNYDGSSTGQAPGEDSEVIIYPQAIFRDPFRRGNNILVICDTYTPAGEPIPTNKRHDAAKVFSHPDVVAEETWYGIEQEYTLLQKDIQWPLGWPVGGFPGPQGPYYCGVGADKAFGRDIVDAHYKACLYAGINISGINGEVMPGQWEFQVGPSVGISAGDEVWAARYILERITEIAGVVVSFDPKPIQGDWNGAGAHTNYSTKSMRNDGGYEVIKTAIEKLGKRHKEHIAAYGEGNERRLTGRHETADINTFLWGVANRGASVRVGRDTEKAGKGYFEDRRPASNMDPYVVTSMIADTTILWKP
modifications: Glycine max
notes: 3, control
[1]; [5]
  growth of transformed E. coli (glufosinate resistance): could hardly grow
[1]
  growth of transformed GS-deficient E. coli (normal GS enzymatic activity): could normally grow

B8: GmGR (protein)
chain: MSLLSDLINLNLSDTTEKVIAEYIWIGGSGMDLRSKARTLPGPVSDPSKLPKWNYDGSGTGQAPGEDSEVIIYPQAIFRDPFRRGNNILVICDTYTPAGEPIPTNKRHDAAKVFSHPDVVAEETWYGIEQEYTLLQKDIQWPLGWPVGGFPGPQGPYYCGVGADKAFGRDIVDAHYKACLYAGINISGINGEVMPGQWEFQVGPSVGISAGDEVWAARYILERITEIAGVVVSFDPKPIQGDWNGAGAHTNYSTKSMRNDGGYEVIKTAIEKLGKRHKEHIAAYGEGNERRLTGRRETADINTFLWGVANRGASVRVGRDTEKAGKGYFEDRRPASNMDPYVVTSMIADTTILWKP
modifications: GmGR
[1]; [5]
  growth of transformed E. coli (glufosinate resistance): significantly grew
[1]
  growth of transformed GS-deficient E. coli (normal GS enzymatic activity): could normally grow
